Measurements taken from patent publication US20020026033A1 (BOARD OF REGENTS OF THE UNIVERSITY OF OKLAHOMA, published 2002).
Ends that are not written are not given here. * marks the point of attachment. sulfate = O=S(=O)(O)*

Target: T1, recombinant soluble P-selectin (sPS) (UniProt P16109 42-771, limits assumed)
T1 construct: Neither the residues nor the species are stated
T1 sequence (looked up): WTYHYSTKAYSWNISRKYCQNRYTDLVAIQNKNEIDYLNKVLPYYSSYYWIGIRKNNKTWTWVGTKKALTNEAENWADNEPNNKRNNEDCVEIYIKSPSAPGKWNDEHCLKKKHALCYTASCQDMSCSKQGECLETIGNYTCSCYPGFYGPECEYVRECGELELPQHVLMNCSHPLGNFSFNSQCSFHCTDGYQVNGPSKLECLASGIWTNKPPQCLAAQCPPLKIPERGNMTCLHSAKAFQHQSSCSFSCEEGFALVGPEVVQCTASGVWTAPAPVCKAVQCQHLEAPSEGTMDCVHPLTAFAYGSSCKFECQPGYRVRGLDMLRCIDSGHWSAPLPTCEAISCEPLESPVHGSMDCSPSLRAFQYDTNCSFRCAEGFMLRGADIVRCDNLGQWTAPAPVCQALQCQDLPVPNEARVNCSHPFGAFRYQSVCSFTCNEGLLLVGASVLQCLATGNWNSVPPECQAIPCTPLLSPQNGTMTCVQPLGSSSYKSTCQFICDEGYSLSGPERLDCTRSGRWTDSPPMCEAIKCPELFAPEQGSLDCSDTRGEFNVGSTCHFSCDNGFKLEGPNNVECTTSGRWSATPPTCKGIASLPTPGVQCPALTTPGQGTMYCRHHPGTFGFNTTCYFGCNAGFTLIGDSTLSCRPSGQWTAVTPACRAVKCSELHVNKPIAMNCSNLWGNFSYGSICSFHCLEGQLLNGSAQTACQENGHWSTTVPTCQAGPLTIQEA
Experiment: equilibrium gel filtration; fluid-phase sPS (25-1000 pmol) on columns equilibrated with 35SO3-GSP-6 in Ca2+-containing buffer
Method: Equilibrium gel filtration experiments were conducted in a Sephadex G-75 column (0.5×10 cm, 2 ml) equilibrated with 4 ml of 20 mM MOPS, pH 7.5, containing 150 mM NaCl, 2 mM CaCl₂, 2 mM MgCl₂, and 0.02% NaN₃ (buffer A), and ³⁵SO₃-GSP-6 (10,000 cpm/ml, specific activity 1700 cpm/pmol). Different amounts of soluble P-selectin (sPS) (25-1000 pmol) (Ushiyama et al., J. Biol. Chem., 268:15229-15237, 1993) were preincubated for 30-60 min in 120 μl of buffer A containing ³⁵SO₃-GSP-6 and applied to the column. Samples were eluted with buffer A (including ³⁵SO₃-GSP-6), and 140 μl fractions were collected at a flow rate of 70 μl/min. Radioactivity in the fractions was determined by liquid scintillation counting. Control experiments to test inhibitors of binding between sPS and GSP-6 were performed using 400 pmol of sPS and 5,000 cpm/ml of ³⁵SO₃-GSP-6. The EDTA concentration was 1 mM in 20 mM MOPS, pH 7.5, 150 mM NaCl, 0.02% NaN₃. Anti-P-selectin monoclonal antibodies (G1 and S12) (800 pmol each) were preincubated for 30 min with sPS in buffer A before ³⁵SO₃-GSP-6 was added. Elution was performed by using buffer A with ³⁵SO₃-GSP-6.
The dissociation constant (Kd) for binding of GSP-6 to soluble sPS was determined using an equilibrium gel filtration technique. […]

- Kd: ~350 nM
B1: glycosulfopeptide-6 (GSP-6) (peptide)
peptide: GQATEY(sulfate)EY(sulfate)LDY(sulfate)DFLPETEPPEML
modifications: also: core-2 O-glycan with sialyl Lewis x on a Thr, position not given here
notes: range 42-63; Synthetic glycosulfopeptide; also called 35SO3-GSP-6; 35SO3-glycosulfopeptide-6
